Test results taken from publication PMC4097884.

Experiments:
[1] = target: 3K peptide peptide on I-Ab (mouse); experiment: SPR, equilibrium
[2] = target: FMRKA peptide, from an IA^b-random peptide baculovirus library peptide on I-Ab (mouse); experiment: SPR, equilibrium

Kd [1]: 32 µM
Kd [2]: 22 µM
Substance: J809.B5 αY31A
